The values that follow come from paper PMC4383067 (Acta Neuropathologica Communications, 2015).

For assay [1], the target named is Amyloid fibrils of human PrP Δ23-99 (human, UniProt P04156 100-231). The assay is described as follows: static light scattering kinetics. Conditions: both partners purified.
In assay [2] the target is Amyloid fibrils of human PrP Δ100-120 (human, UniProt P04156 23-231, ∆100-120). Put plainly: static light scattering kinetics. Conditions: both partners purified.

B1: Full-length human acetylcholinesterase (dimeric, recombinant) (enzyme)
chain: EGREDAELLVTVRGGRLRGIRLKTPGGPVSAFLGIPFAEPPMGPRRFLPPEPKQPWSGVVDATTFQSVCYQYVDTLYPGFEGTEMWNPNRELSEDCLYLNVWTPYPRPTSPTPVLVWIYGGGFYSGASSLDVYDGRFLVQAERTVLVSMNYRVGAFGFLALPGSREAPGNVGLLDQRLALQWVQENVAAFGGDPTSVTLFGESAGAASVGMHLLSPPSRGLFHRAVLQSGAPNGPWATVGMGEARRRATQLAHLVGCPPGGTGGNDTELVACLRTRPAQVLVNHEWHVLPQESVFRFSFVPVVDGDFLSDTPEALINAGDFHGLQVLVGVVKDEGSYFLVYGAPGFSKDNESLISRAEFLAGVRVGVPQVSDLAAEAVVLHYTDWLHPEDPARLREALSDVVGDHNVVCPVAQLAGRLAAQGARVYAYVFEHRASTLSWPLWMGVPHGYEIEFIFGIPLDPSRNYTAEEKIFAQRLMRYWANFARTGDPNEPRDPKAPQWPPYTAGAQQYVSLDLRPLEVRRGLRAQACAFWNRFLPKLLSATDTLDEAERQWKAEFHRWSSYMVHWKNQFDHYSKQDRCSDL
notes: also called AChE; dimeric AChE
In the case of B1, the “stoichiometry N” value in assay [1] and in assay [2] was 0.5 in each case.

A word on the stoichiometry N: it is a count of units in the complex or per binding partner.
